Results published in the supplement of paper PMC12338614.
± gives the uncertainty stated by the source.

B1: library; numbered along this chain (parent)
chain: MEVVDPQQLGMFTEGELMSVGMDTFIHRIDSTEVIYQPRRKRAKLIGKYLMGDLLGEGSYGKVKEVLDSETLCRRAVKILKKKKLRRIPNGEANVKKEIQLLRRLRHKNVIQLVDVLYNEEKQKMYMVMEYCVCGMQEMLDSVPEKRFPVCQAHGYFCQLIDGLEYLHSQGIVHKDIKPGNLLLTTGGTLKISDLGVAEALHPFAADDTCRTSQGSPAFQPPEIANGLDTFSGFKVDIWSAGVTLYNITTGLYPFEGDNIYKLFENIGKGSYAIPGDCGPPLSDLLKGMLEYEPAKRFSIRQIRQHSWFRKKHPPAEAPVPIPPSPDTKDRWRSMTVVPYLEDLHGADEDEDLFDIEDDIIYTQDFTVPGQVPEEEASHNGQRRGLPKAVCMNGTEAAQLSTKSRAEGRAPNPARKACSASSKIRRLSACKQQ

Variants of: B1
Test: STK11 functional score (HeLa growth suppression), rescaled enrichment; synonymous median = 1, nonsense median = 0 (normalised score)
Conditions: with HeLa; variant type: missense
Description: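 Deep mutational scan (TileSeq/POPCode codon randomisation) of full-length codon-optimised STK11 cDNA integrated at a Bxb1 landing pad (AAVS1) in HeLa cells. Restoring functional STK11 suppresses HeLa proliferation. Variant frequencies were measured by NGS before and after about two weeks of growth. The error-corrected enrichment log-ratio was rescaled so that synonymous median = 1 and nonsense median = 0, scores above 1 were compressed, and codon-level and three biological replicate scores were combined; error is the bootstrapped standard error. Scale: synonymous median = 1, nonsense median = 0; below 0.5 = damaging.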

MEVVDPQQLGMFTEGELMSVGMDTFIHRIDSTEVIYQPRRKRAKLIGKYLMGDLLGEGSYGKVKEVLDSETLCRRAVKILKKKKLRRIPNGEANVKKEIQLLRRLRHKNVIQLVDVLYNEEKQKMYMVMEYCVCGMQEMLDSVPEKRFPVCQAHGYFCQLIDGLEYLHSQGIVHKDIKPGNLLLTTGGTLKISDLGVAEALHPFAADDNCRTSQGSPAFQPPEIANGLDTFSGFKVDIWSAGVTLYNITTGLYPFEGDNIYKLFENIGKGSYAIPGDCGPPLSDLLKGMLEYEPAKRFSIRQIRQHSWFRKKHPPAEAPVPIPPSPDTKDRWRSMTVVPYLEDLHGADEDEDLFDIEDDIIYTQDFTVPGQVPEEEASHNGQRRGLPKAVCMNGTEAAQLSTKSRAEGRAPNPARKACSASSKIRRLSACKQQ [T209N] was tested. Which STK11 functional score did it give?
The STK11 functional score was 1.51 ± 0.17.

For MEVVDPQQLGMFTEGELMSVGMDTFIHRIDSTEVIYQPRRKRAKLIGKYLMGDLLGEGSYGKVKEVLDSETLCRRAVKILKKKKLRRIPNGEANVKKEIQLLRRLRHKNVIQLVDVLYNEEKQKMYMVMEYCVCGMQEMLDSVPEKRFPVCQAHGYFCQLIDGLEYLHSQGIVHKDIKPGNLLLTTGGTLKISDLGVAEALHPFAADDTCRTSQGSPAFQPPEIANGLDTFSGFKVDIWSAGVTLYNITTGLYPFEGDNIYKLFENIGKGSYAIPGDCGPPLSDLLKGMYEYEPAKRFSIRQIRQHSWFRKKHPPAEAPVPIPPSPDTKDRWRSMTVVPYLEDLHGADEDEDLFDIEDDIIYTQDFTVPGQVPEEEASHNGQRRGLPKAVCMNGTEAAQLSTKSRAEGRAPNPARKACSASSKIRRLSACKQQ [L290Y], which STK11 functional score is on record?
The STK11 functional score was -0.205 ± 0.067.

Which STK11 functional score does the source give for MEVVDPQQLGMFTEGELMSVGMDTFIHRIDSTEVIYQPRRKRAKLIGKYLMGDLLGEGSYGKVKEVLDSETLCRRAVKILKKKKLRRIPNGEANVKKEIQLLRRLRHKNVIQLVDVLYNEEKQKMYMVMEYCVCGMQEMLDSVPEKRCPVCQAHGYFCQLIDGLEYLHSQGIVHKDIKPGNLLLTTGGTLKISDLGVAEALHPFAADDTCRTSQGSPAFQPPEIANGLDTFSGFKVDIWSAGVTLYNITTGLYPFEGDNIYKLFENIGKGSYAIPGDCGPPLSDLLKGMLEYEPAKRFSIRQIRQHSWFRKKHPPAEAPVPIPPSPDTKDRWRSMTVVPYLEDLHGADEDEDLFDIEDDIIYTQDFTVPGQVPEEEASHNGQRRGLPKAVCMNGTEAAQLSTKSRAEGRAPNPARKACSASSKIRRLSACKQQ [F148C] here?
Its STK11 functional score is 0.493 ± 0.087.

For MEVVDPQQLGMFTEGELMSVGMDTFIHRIDSTEVIYQPRRKRAKLIGKYLMGDLLGEGSYGKVKEVLDSETLCRRAVKILKKKKLRRIPNGEANVKKEIQLLRRLRHKNVIQLVDVLYNEEKQKMYMVMEYCVCGMQEMLDSVPEKRFPVCQAHGYFCQLIDGLEYLHSQGIVHKDIKPFNLLLTTGGTLKISDLGVAEALHPFAADDTCRTSQGSPAFQPPEIANGLDTFSGFKVDIWSAGVTLYNITTGLYPFEGDNIYKLFENIGKGSYAIPGDCGPPLSDLLKGMLEYEPAKRFSIRQIRQHSWFRKKHPPAEAPVPIPPSPDTKDRWRSMTVVPYLEDLHGADEDEDLFDIEDDIIYTQDFTVPGQVPEEEASHNGQRRGLPKAVCMNGTEAAQLSTKSRAEGRAPNPARKACSASSKIRRLSACKQQ [G180F], which STK11 functional score is on record?
The STK11 functional score was 0.804 ± 0.068.

MEVVDPQQLGMFTEGELMSVGMDTFIHRIDSTEVIYQPRRKRAKLIGKYLMGDLLGEGSYGKVKEVLDSETLCRRAVKILKKKKLRRIPNGEANVKKEIQLLRRLRHKNVIQLVDVLYNEEKQKMYMVMEYCVCGMQEMLDSVPEKRFPVCQAHGYFCQLIDGLEYLHSQGIVHKMIKPGNLLLTTGGTLKISDLGVAEALHPFAADDTCRTSQGSPAFQPPEIANGLDTFSGFKVDIWSAGVTLYNITTGLYPFEGDNIYKLFENIGKGSYAIPGDCGPPLSDLLKGMLEYEPAKRFSIRQIRQHSWFRKKHPPAEAPVPIPPSPDTKDRWRSMTVVPYLEDLHGADEDEDLFDIEDDIIYTQDFTVPGQVPEEEASHNGQRRGLPKAVCMNGTEAAQLSTKSRAEGRAPNPARKACSASSKIRRLSACKQQ [D176M] was tested. Which STK11 functional score did it give?
The STK11 functional score was 0.0191 ± 0.14.

Which STK11 functional score does the source give for MEVVDPQQLGMFTEGELMSVGMDTFIHRIDSTEVIYQPRRKRAKLIGKYLMGDLLGEGSYGKVKEVLDSETLCRRAVKILKKKKLRRIPNGEANVKKEIQLLRRLRHKNVIQLVDVLYNEEKQKMYMVMEYCVCGMQEMLDSVPEKRFPVCQAHGYFCQLIDGLEYLHSQGIVHKDIKPGNLLLTTGGTLKISDLGVAEALHPFAADDTCRTSQGSPAFQPHEIANGLDTFSGFKVDIWSAGVTLYNITTGLYPFEGDNIYKLFENIGKGSYAIPGDCGPPLSDLLKGMLEYEPAKRFSIRQIRQHSWFRKKHPPAEAPVPIPPSPDTKDRWRSMTVVPYLEDLHGADEDEDLFDIEDDIIYTQDFTVPGQVPEEEASHNGQRRGLPKAVCMNGTEAAQLSTKSRAEGRAPNPARKACSASSKIRRLSACKQQ [P222H] here?
Its STK11 functional score is 0.314 ± 0.11.

MEVVDPQQLGMFTEGELMSVGMDTFIHRIDSTEVIYQPRRKRAKLIGKYLMGDLLGEGSYGKVKEVLDSETLCRRAVKILKKKKLRRIPNGEANVKKEIQLLRRLRHKNVIQLVDVLYNEEKQKMYMVMEYCVCGDQEMLDSVPEKRFPVCQAHGYFCQLIDGLEYLHSQGIVHKDIKPGNLLLTTGGTLKISDLGVAEALHPFAADDTCRTSQGSPAFQPPEIANGLDTFSGFKVDIWSAGVTLYNITTGLYPFEGDNIYKLFENIGKGSYAIPGDCGPPLSDLLKGMLEYEPAKRFSIRQIRQHSWFRKKHPPAEAPVPIPPSPDTKDRWRSMTVVPYLEDLHGADEDEDLFDIEDDIIYTQDFTVPGQVPEEEASHNGQRRGLPKAVCMNGTEAAQLSTKSRAEGRAPNPARKACSASSKIRRLSACKQQ [M136D] was tested. Which STK11 functional score did it give?
The STK11 functional score was -0.0676 ± 0.092.
